Measurements as given in article PMC3655159 (Journal of molecular biology, 2013).

Target: the molecule itself
Test: SDS-PAGE under mildly denaturing conditions

B1: gB730 L700G/L711G (domain or fragment)
chain: not shown
stoichiometry N: 3
